Experimental data taken from the supplement of paper PMC9170038.

Tested on: MS2 coat protein
Assay: apparent KD of MS2 coat protein; designed switch direction (-1 OFF switch, 1 ON switch): -1; higher = weaker reporter binding
Method in brief: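 Transcription of designed RNA switches on Illumina chips was done by stalled E. coli RNA polymerase. SNAP-549-labelled MS2 coat protein was then titrated in doubling steps from 0.7 or 1.5 nM to 3 µM, with steps of 0.8–1.5 h at the lowest and 10–20 min at the highest concentration. The per-design median over clusters of curve-fitted normalised fluorescence is reported as apparent KD.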

[1] = input ligand: microRNA oligo, concentration not stated
[2] = Eterna round: R95, input ligand: microRNA oligo, concentration not stated
[3] = Eterna round: R95, input ligand: FMN 200 uM
[4] = Eterna round: R95, input ligand: none

Row | Sequence | apparent KD of MS2 coat protein (input ligand: FMN 200 uM) [µM] | apparent KD of MS2 coat protein (input ligand: none) [µM] | apparent KD of MS2 coat protein [1] [µM] | apparent KD of MS2 coat protein [2] [µM] | apparent KD of MS2 coat protein [3] [µM] | apparent KD of MS2 coat protein [4] [µM]
1 | GUUUCGAGACGGAGAUCCGACAUGAGGAUCACCCAUGUCUCCCAAGCUUUUUGCUCGUCUUAUACUCCUCUGUUCUC [Elimod 47 - Jieux - Sensor, turn-off variant 1] (Eterna round: R97, puzzle: Sensor, turn-off variant 1) | 0.018 | 0.0194 | – | – | – | –
2 | UUGUUCCAUGUAGGAUAUGCAUAUUCUUAUUAUGCAGAAGGACAUGAGGAUCACCCAUGUAUGUUAUUAUUAUAUGUUACAUGU [Design 1] (Eterna round: R96, puzzle: Exclusion NG 1) | – | – | 0.0567 | – | – | –
3 | GCUUCCCAUGUGAGGAUAUGUAGGGUUAACCCGAGGCAGAAGGCACAUGAGGAUCACCCAUGUUAAAACUUCUA [Xecera] (puzzle: Brourd's mod of Exclusion 4) | – | – | – | 0.0308 | – | –
4 | UUUAUUUUGCAAGGAUAUGUUUAAUUUUAGUUUCCUUACACAUGAGGAUCACCCAUGUUAUACUUACAGAAGGUGCGUAAUUUU [Excl-NG2-LRO01] (Eterna round: R96, puzzle: Exclusion NG 2) | – | – | 0.101 | – | – | –
5 | GGUCGGCGAGGAUAUACAUGAGGAUCACCCAUGUGAUAGAUUGCACGCGUACGUGUAUGUAGAAGGCGCUGACG [JL-ex3-3.30 salish99 mod] (puzzle: Exclusion 3) | – | – | – | 0.0296 | 0.811 | 0.0328
6 | GGUCUGCGAGGAUAUACAUGAGGAUCACCCAUGUGCGAGAAACUAGUGAGGUCGGUUGGUAGAAGGCGCGGACG [Mat - Exclusion 3 - Mod of JL D89] (puzzle: Exclusion 3) | – | – | – | 0.014 | 0.0139 | 0.0328
7 | AAAUACAAGUAAGGAUUCUACAUGAGGAUCACCCAUGUGCUCGUCUUAUAAAGUACUAUCACGAAAGUGAUAGUACA [Sensor 3, v1 - 38] (puzzle: Sensor v3, turn-off variant 1) | – | – | – | 0.19 | 0.022 | 0.0262
8 | UUGUAGUCAGGAUAUACAUGAGGAUCACCCAUGUAAAAUUUUAAUUUAAUUUGAAGGUGUAGAAGGGACCAGUU [Ex3 #24] (Eterna round: R97, puzzle: Exclusion 3) | 0.0365 | 0.0434 | – | – | – | –
9 | CCGGUUUAGGAGGAUAUAGGAGUCGAUAGACACCUAGAAGGCCUAACAUGAGGAUCACCCAUGUGACCUUCCGG [Mod of Eli 30 - Jieux - Exclusion 6] (Eterna round: R97, puzzle: Exclusion 6) | 0.234 | 0.076 | – | – | – | –
10 | AAUUUACAUGAGGAUCACCCAUGUGAGGAUAUAUGUAAACAAUUUUUAUUCAUCAAACAUAGAAGGCGCGUGAU [JR_Exc1_Sub044] (Eterna round: R97, puzzle: Exclusion 1) | 0.0413 | 0.0426 | – | – | – | –
11 | AAAUAACAAGCAAUAAACCACAUGAGGAUCACCCAUGUAAAGGGUGAAUCGUCCACCCAAAAAAAAAAAAAAAAAUA [Mat - Sensor v2 - Eli mod - 147] (Eterna round: R96, puzzle: Sensor v2, turn-off variant) | 0.0433 | 0.0523 | 0.178 | – | – | –
12 | ACCGACAGAGGAUAUGCAAGUAGGAACAUGAGGAUCACCCAUGUGAUACGUGCACGUGCGGCAGAAGGCUGAUCGA [Velamaed] (Eterna round: R97, puzzle: Exclusion 5) | 0.0171 | 0.0154 | – | – | – | –
13 | GAGCCAUCGUGAGAUGGCUAAUAUACAUGAGGAUCACCCAUGUAGGAUAUCGAUUGCUUUGCAGUCGAGAAGGACAUGUUUAAU [JL ENG3 3.97] (Eterna round: R96, puzzle: Exclusion NG 3) | 0.0674 | 0.0337 | 0.0267 | – | – | –
14 | GCACGAAGUGUAGGAUAUCUGUGCGAUUAGCUCAGAGAAGGACACAUGAGGAUCACCCAUGUGUUCCAAUCACAAAAUACGUGC [Eli exng1 - 060] (Eterna round: R96, puzzle: Exclusion NG 1) | 0.0117 | 0.0119 | 0.011 | – | – | –
15 | GCUUGCGAAGUAAGGAUAUCGGUCCGAAAGGACUACGAGAAGGUACAUGAGGAUCACCCAUGUGCGAGCAGAAU [Mod of Zala 24 - Jieux - Brourd's mod of Exclusion 4] (Eterna round: R97, puzzle: Brourd's mod of Exclusion 4) | 0.0196 | 0.023 | – | – | – | –
16 | AUCCUACAUGAGGAUCACCCAUGUCAGGAUAUCCAAGAAAUCUGGCCGUAUCGGCCAGGGAGAAGGGACAUGGU [jl-ex1-4.63 ViennaUCT mod] (Eterna round: R97, puzzle: Exclusion 1) | 0.0853 | 0.049 | – | – | – | –
17 | GAGUUAACGUGAGGAAUAUACAUGAGGAUCACCCAUGUUAACAAAUUUAUUGCUCGUCUUAUAACAACAAUUAACUC [Alarm 6 - Jieux - Sensor, turn-off variant 1] (Eterna round: R97, puzzle: Sensor, turn-off variant 1) | 0.023 | 0.0277 | – | – | – | –

Row | Sequence | apparent KD of MS2 coat protein (input ligand: FMN 200 uM) [µM] | apparent KD of MS2 coat protein (input ligand: none) [µM] | apparent KD of MS2 coat protein [1] [µM] | apparent KD of MS2 coat protein [2] [µM] | apparent KD of MS2 coat protein [3] [µM] | apparent KD of MS2 coat protein [4] [µM]
18 | ACAAGCUUUUUGCAACAAGCAUUAAACUCUCAGAUCGUAACAUGAGGAUCACCCAUGUAAGUUUUAUGACGUCUUAU [JR_SV3TOV2_Sub095] (puzzle: Sensor v3, turn-off variant 2) | – | – | – | 0.0181 | 0.0208 | 0.0229
19 | UUUUAACAUGAGGAUCACCCAUGUGAGGAUAUCGAAAUUUAUAUUAAUAUUUAUUUUUCGAGAAGGCACAUUUU [JMF 65] (puzzle: Exclusion 1) | – | – | – | 0.157 | – | –
20 | GUUGUUUAUGUAGGAUAUGCCUGGCGAGCCUAAGCAGAAGGACAUGAGGAUCACCCAUGUAUUGCGGUCUGCGUUCAGAUCGCU [salish99_ExNG1_r4_018] (Eterna round: R96, puzzle: Exclusion NG 1) | 0.0383 | 0.0189 | 0.00994 | – | – | –
21 | UUAUUAAUUAAUAUUAUAAGAUCACAUGAGGAUCACCCAUGUCAGGAUAUCAGCUCGUGUAGAGCUGAGAAGGGACAAAUAAUA [ExNG3/15-B3] (Eterna round: R96, puzzle: Exclusion NG 3) | 0.576 | 0.306 | 0.451 | – | – | –
22 | AGUUGGCGAGGAUAUACAUGAGGAUCACCCAUGUAAGAGAUACGAGUAAGGUAAAUAUGUAGAAGGCGCUGACA [JR_Ex3_Sub076] (Eterna round: R97, puzzle: Exclusion 3) | 0.251 | 0.0269 | – | – | – | –
23 | GCACGGAAUGUAGGAUAUUAGUGCGAUUAGCACUGAGAAGGACAUGAGGAUCACCCAUGUAAUAACAUAAUAAACCUUCCGUGC [Eli exng1 - 046] (Eterna round: R96, puzzle: Exclusion NG 1) | 0.0121 | 0.0136 | 0.00827 | – | – | –
24 | AAGUAGGCAGGAUAUACAUGAGGAUCACCCAUGUGCCCAUGAAAGGUACUUUCGAAAGGUAGAAGGGCCUACAA [ChP 13.04.2015 #5] (puzzle: Exclusion 3) | – | – | – | 0.0146 | – | –
25 | AGGUCACAUGAGGAUCACCCAUGUCAGGAUAUCGUCACUGGAGCCUCGGCUCCAGUGACGAGAAGGGAUAAUUA [E1/8-A2] (Eterna round: R97, puzzle: Exclusion 1) | 0.0753 | 0.0505 | – | – | – | –
26 | UAAUACAAGCAAAGAUCCUACAUGAGGAUCACCCAUGUGCUCGUCUUGUAAAGUACUAUCACGAAAGUGAUAGUACA [Mat - Sensor v3 - turn-off var 1 - Eli Mod - D77] (puzzle: Sensor v3, turn-off variant 1) | – | – | – | 0.0171 | 0.0412 | 0.114
27 | AGUCUGCUAGGAUAUACAUGAGGAUCACCCAUGUCUAUCAAAAGACUAUUAACCUGGUGUAGAAGGAGCUUGUA [Lasodiar] (puzzle: Exclusion 3) | – | – | – | 0.0107 | – | –
28 | GGUGCGUUUGUGAGGAUAUGCUGGUCCUUGGUUCGGCAGAAGGCACAUGAGGAUCACCCAUGUGGUGUCGUUCC [salish99_Bmod_Ex4_047] (puzzle: Brourd's mod of Exclusion 4) | – | – | – | 0.0139 | – | –
29 | CUGAGCUGAGGAUAUACAUGAGGAUCACCCAUGUUUUGUAGCUAGUGAAGAAGUAGAUGUAGAAGGCAGUUCGG [Mod of JL 25 - Jieux - Exclusion 3] (Eterna round: R97, puzzle: Exclusion 3) | 0.167 | 0.0728 | – | – | – | –
30 | GCGGGCUUGGGAGGAUAUACAUGAGGAUCACCCAUGUGUGUUCGGGCUGGCCGGUUUGGGCGCGUGUAGAAGGCUCGGGUUUGC [less GC, A 14%] (Eterna round: R96, puzzle: Exclusion NG 2) | 0.0251 | 0.0161 | 0.0134 | – | – | –
31 | AAGUACCGGUGAGGAUAUUUUUAAUAGAACUUUAUGAUAUACAUGAGGAUCACCCAUGUUACUUUAAAGAAGGCAUCGGAUAAA [Mat - Exclusion NG 2 - Mod of JL - D87] (Eterna round: R96, puzzle: Exclusion NG 2) | – | – | 0.012 | – | – | –
32 | GUGUUGUCAGGAUAUCUUACAUAACUAUCGUUGUUACCAUUGGAGAAGGGACAUGAGGAUCACCCAUGUUUUCG [tap-tap-tappy50] (Eterna round: R97, puzzle: Exclusion 4) | 0.0239 | 0.0246 | – | – | – | –
33 | CUUCACCCACCAGAGCUCACCCACAUACCUACUCAGGUGACAUGAGGAUCACCCAUGUUUUUUGCCCGUCUUAUCUU [Vexebedi] (puzzle: Sensor v3, turn-off variant 2) | – | – | – | 0.216 | 0.0283 | 0.0304
34 | UGAAGUAGAGGAUAUACGUGGAAAUAGAUUCAUGUAAAACUACAUGAGGAUCACCCAUGUAGAAGGCUAUAGAU [JR_Ex2_Sub072] (Eterna round: R97, puzzle: Exclusion 2) | 0.0284 | 0.049 | – | – | – | –
